Results on one substance are retold here after PMC11813584, “An odorant-binding protein functions in fire ant social immunity interfacing with innate immunity” (Open Biology, 2025).

In the test the target is SiOBP15, purified, His-tag removed (Solenopsis invicta). The experiment in a line: SPR; open SPR; SiOBP15 coupled to a COOH chip until saturation, SiApoLp-III or SiFABP5 titrated as analyte; one-to-one model (TraceDrawer). (In general: In SPR one partner is held on a chip, and binding of the other changes the refractive index at the surface.)

As usually defined, the Kd is the concentration at which binding is half-saturated. The low end stands for tighter binding, the high end for weaker binding. As for “SiFABP5, purified, His-tag removed (natural protein)”, the Kd stood at 1100 nM.
